{"source": "paper doi:10.1101/2023.01.30.526200", "about": "“The virus-encoded ion channel “viroporin” activity of the agnoprotein is required for BK Polyomavirus release from infected kidney cells” (bioRxiv, 2023)", "proteins": {"B1": {"name": "recombinant 10xHis BKPyV agnoprotein (natural protein)", "chain": "MVLRQLSRQASVKVGKTWTGTKKRAQRIFIFILELLLEFCRGEDSVDGKNKSTTALPAVKDSVKDS", "notes": "agnoprotein of BK polyomavirus, DNA codon optimised for E. coli, amplified with primers from the ATG to the stop codon and cloned into pET19b (KpnI/BamHI); also called 10xHis BK agnoprotein; recombinant agnoprotein; source: E. coli DE3 gold, purified (NiNTA, HiTrap SP ion exchange, C4 solid phase extraction; dissolved in DMSO); not shown: His10, N-terminal, kept"}}, "biological_target": "the molecule itself", "experiment": "SDS-PAGE (SDS-resistant oligomers); increasing concentrations of purified His-BKPyV agnoprotein on SDS PAGE, probed with anti-agnoprotein or anti-His antibody; oligomerisation concentration dependent", "note": "Values joined by “and” are separate entries in the source; they are usually repeats but may differ in a detail not shown here. Identical values can stand only once.", "data": [{"protein": "B1", "values": [{"measurement": "stoichiometry N", "value": "2 and 4 and 5"}]}]}
